In patent publication US7427671 (US Dept. of Health and Human Services, dated 2008):

Target: T1, human type α platelet derived growth factor receptor (T11 gene product) (human, UniProt P16234 24-1089)
T1 construct: In western blots and immunoprecipitations it came from cell lysates; also called type α PDGF-R; α PDGFR
Assay: Scatchard analysis of PDGF-BB binding to 32D-αR transfectants

T1 sequence (P16234 24-1089): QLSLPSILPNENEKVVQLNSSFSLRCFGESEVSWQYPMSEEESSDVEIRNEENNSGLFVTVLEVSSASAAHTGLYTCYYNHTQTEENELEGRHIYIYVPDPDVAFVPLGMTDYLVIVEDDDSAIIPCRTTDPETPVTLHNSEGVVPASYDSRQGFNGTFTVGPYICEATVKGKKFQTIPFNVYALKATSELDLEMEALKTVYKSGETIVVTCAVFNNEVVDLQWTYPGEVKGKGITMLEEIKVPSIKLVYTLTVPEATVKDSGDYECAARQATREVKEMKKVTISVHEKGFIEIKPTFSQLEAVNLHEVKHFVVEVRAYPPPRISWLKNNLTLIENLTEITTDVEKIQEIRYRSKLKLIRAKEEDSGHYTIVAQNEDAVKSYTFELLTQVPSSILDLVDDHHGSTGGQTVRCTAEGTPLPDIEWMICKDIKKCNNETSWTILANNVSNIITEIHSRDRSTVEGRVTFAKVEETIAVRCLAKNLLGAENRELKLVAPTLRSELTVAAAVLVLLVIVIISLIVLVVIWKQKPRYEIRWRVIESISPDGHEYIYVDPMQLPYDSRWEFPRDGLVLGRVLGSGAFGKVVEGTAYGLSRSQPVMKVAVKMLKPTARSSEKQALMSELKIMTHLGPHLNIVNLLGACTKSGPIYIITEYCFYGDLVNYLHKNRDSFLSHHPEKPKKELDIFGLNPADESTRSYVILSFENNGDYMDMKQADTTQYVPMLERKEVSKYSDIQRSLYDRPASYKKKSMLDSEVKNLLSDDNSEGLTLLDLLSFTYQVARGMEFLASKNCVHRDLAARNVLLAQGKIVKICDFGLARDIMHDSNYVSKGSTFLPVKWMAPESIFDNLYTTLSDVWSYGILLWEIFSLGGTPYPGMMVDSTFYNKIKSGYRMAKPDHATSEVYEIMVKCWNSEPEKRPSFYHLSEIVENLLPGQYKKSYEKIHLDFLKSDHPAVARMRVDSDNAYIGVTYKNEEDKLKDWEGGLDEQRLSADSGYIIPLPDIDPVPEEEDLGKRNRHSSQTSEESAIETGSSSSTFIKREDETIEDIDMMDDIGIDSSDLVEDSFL

B1: recombinant PDGF-BB (ligand, UniProt P01127 82-190, looked up)
chain: SLGSLTIAEPAMIAECKTRTEVFEISRRLIDRTNANFLVWPPCVEVQRCSGCCNNRNVQCRPTQVQLRPVQVRKIEIVRKKPIFKKATVTLEDHLACKCETVAAARPVT
notes: Homodimer of B chains; also called BB homodimer
Which Kd does the source give for B1 here?
The Kd was 400 pM.
